Measurements as given in patent US20250076311A1 (Chugai, published 2025).
Changes are numbered by the printed parent chain. Values belong to the binder of their own block, whether it stands above or below them.

Columns and labels:
[1] = biological target: T1, cynomolgus monkey FcγRIIb extracellular domain, His-tagged (cynomolgus monkey); test: SPR Biacore, antibody captured, FcgR analyte
T1 construct: also called cyno FcγRIIb; cynoFcγRIIb; not shown: C-terminal His-tag
T1 chain: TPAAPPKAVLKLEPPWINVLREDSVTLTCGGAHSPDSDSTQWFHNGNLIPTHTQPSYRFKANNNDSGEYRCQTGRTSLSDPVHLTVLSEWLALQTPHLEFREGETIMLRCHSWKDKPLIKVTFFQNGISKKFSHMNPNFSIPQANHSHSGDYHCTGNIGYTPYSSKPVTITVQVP

[2] = biological target: T2, human FcγRIIaH extracellular domain, C-terminal His-tag (human, UniProt P12318 34-217); test: SPR, anti-kappa capture; KD(SG1)/KD(variant)
T2 construct: also called FcgRIIaH; human FcγRIIa (type H)
T2 sequence: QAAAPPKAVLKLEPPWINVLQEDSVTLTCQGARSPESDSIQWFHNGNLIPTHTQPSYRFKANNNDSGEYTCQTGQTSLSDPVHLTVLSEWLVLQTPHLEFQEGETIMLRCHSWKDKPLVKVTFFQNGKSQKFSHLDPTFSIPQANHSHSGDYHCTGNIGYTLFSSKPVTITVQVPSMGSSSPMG

[3] = biological target: T3, human FcγRIIIaV extracellular domain, His-tagged (human, UniProt P08637 17-208); test: SPR Biacore, antibody captured, FcgR analyte
T3 construct: also called FcgRIIIaV; not shown: C-terminal His-tag
T3 sequence (P08637 17-208 F176V): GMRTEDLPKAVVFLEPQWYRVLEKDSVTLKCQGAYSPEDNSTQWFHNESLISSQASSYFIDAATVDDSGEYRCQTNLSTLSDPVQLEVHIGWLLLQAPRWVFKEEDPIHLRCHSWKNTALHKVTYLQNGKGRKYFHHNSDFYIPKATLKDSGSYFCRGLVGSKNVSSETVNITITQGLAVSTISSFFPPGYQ

[4] = biological target: T4, cynomolgus monkey FcγRIIa2 extracellular domain, His-tagged (cynomolgus monkey); test: SPR Biacore, antibody captured, FcgR analyte
T4 construct: also called cyno FcγRIIa2; cynoFcgRIIa2; not shown: C-terminal His-tag
T4 chain: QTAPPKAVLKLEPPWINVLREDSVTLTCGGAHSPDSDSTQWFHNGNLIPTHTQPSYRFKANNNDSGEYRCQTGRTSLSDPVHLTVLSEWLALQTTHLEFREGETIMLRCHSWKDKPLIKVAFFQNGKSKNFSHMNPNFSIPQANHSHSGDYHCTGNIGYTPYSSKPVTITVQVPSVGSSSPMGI

[5] = biological target: T5, cynomolgus monkey FcγRIIa3 extracellular domain, His-tagged (cynomolgus monkey); test: SPR Biacore, KD(SG1)/KD(variant)
T5 construct: also called cyno FcγRIIa3; cynoFcgRIIa3; not shown: C-terminal His-tag
T5 chain: T4 chain with K127I, N130K, H133P, Q142R

[6] = biological target: T6, human FcγRIIb extracellular domain, His-tagged (human, UniProt P31994 43-217); test: SPR Biacore, KD(SG1)/KD(variant)
T6 construct: also called FcgRIIb (human); not shown: C-terminal His-tag
T6 sequence: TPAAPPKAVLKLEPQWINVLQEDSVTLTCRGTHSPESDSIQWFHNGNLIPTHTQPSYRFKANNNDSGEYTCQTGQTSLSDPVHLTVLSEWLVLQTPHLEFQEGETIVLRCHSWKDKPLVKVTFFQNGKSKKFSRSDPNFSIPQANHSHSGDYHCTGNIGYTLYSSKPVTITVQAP

[7] = biological target: T7, human FcγRIIaR extracellular domain, His-tagged (human, UniProt P12318 34-217); test: SPR Biacore, KD(SG1)/KD(variant)
T7 construct: also called human FcγRIIa (type R); FcgRIIaR; not shown: C-terminal His-tag
T7 chain: T2 sequence with H134R

[8] = biological target: T4, cynomolgus monkey FcγRIIa2 …; test: SPR Biacore, KD(SG1)/KD(variant)
[9] = biological target: T8, Human latent myostatin (human, UniProt O14793 25-266; O14793 267-375); test: ELISA: biotinylated human latent myostatin (2 nM) on streptavidin-coated plate, antibody titrated, anti-human IgG-HRP, ABTS, OD405
T8 construct: Biotinylated in the ELISAs; also called human myostatin latent form
T8 sequence 1: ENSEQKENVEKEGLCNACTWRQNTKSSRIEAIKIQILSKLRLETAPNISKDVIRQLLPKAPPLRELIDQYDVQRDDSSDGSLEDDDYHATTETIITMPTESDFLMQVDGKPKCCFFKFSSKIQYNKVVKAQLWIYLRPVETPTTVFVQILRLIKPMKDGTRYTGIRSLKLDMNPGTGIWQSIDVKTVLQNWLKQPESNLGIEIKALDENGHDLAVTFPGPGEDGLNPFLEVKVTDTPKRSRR
T8 sequence 2: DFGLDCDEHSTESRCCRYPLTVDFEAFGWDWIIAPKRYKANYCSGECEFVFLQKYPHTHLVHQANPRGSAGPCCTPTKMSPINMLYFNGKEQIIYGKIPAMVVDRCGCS
Procedure: Uncoated ELISA plates (NUNC-IMMUNO plate MAXISORP™ surface, Nalge Nunc International) were coated with 20 μL of 50 nM streptavidin (GenScript) for 2 hour at room temperature. Plates were then washed with PBST three times and blocked with 50 μL 20% Blocking One (Nacalai Tesque) for overnight. On the next day, each well of the plates was incubated with biotinylated human latent myostatin at 2 nM/well/20 μL or biotinylated human latent GDF11 at 20 nM/well/20 μL for 2 hours. After washing, 20 μL of antibody sample was added to the wells and the plates were left for 1 hour. The plates were washed and 20 μL of anti-human IgG-horseradish peroxidase (HRP) (Abcam) diluted in HEPES-buffered saline was added, and the plates were left for another hour. The wells were washed again, and then 50 μL ABTS (KPL) was added to each well, and the plates were incubated for 1 hour.

[10] = biological target: T8, Human latent myostatin; test: ELISA: biotinylated antigen (4 nM) on streptavidin-coated plate, antibody titrated, anti-human IgG-HRP, ABTS, OD405
Procedure: (§1) Uncoated ELISA plates (NUNC-IMMUNO plate MAXISORP surface, Nalge Nunc International) were coated with 20 μL of 50 nM streptavidin (GenScript) for 1 hour at room temperature. Plates were then washed with PBST three times and blocked with 50 μL 20% Blocking One (Nacalai Tesque) overnight. On the next day, each well of each plate was incubated with biotinylated mature myostatin, human or mouse biotinylated latent myostatin, or biotinylated recombinant mouse myostatin propeptide-Fc chimera protein (R&D Systems) at 4 nM/well/20 μL for 2 hours. After washing, 20 μL of antibody sample was added to the wells and the plates were left for 1 hour. The plates were washed and 20 μL of anti-human IgG-horseradish peroxidase (HRP) (Abcam) diluted in HEPES-buffered saline was added, and the plates were left for another hour. The plates were then washed again, and then 50 μL ABTS (KPL) was added to each well, and the plates were incubated for 1 hour.

[11] = biological target: T9, Mouse latent myostatin (mouse, UniProt O08689 26-267; O08689 268-376, limits assumed); test: as above
T9 sequence 1: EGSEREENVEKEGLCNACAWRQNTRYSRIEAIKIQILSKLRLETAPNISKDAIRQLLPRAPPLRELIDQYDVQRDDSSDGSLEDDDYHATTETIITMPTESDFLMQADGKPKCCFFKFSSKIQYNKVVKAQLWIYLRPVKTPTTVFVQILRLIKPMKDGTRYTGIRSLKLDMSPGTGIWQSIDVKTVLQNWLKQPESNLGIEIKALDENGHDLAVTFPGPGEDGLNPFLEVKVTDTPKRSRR
T9 sequence 2: T8 sequence 2
Procedure: as §1

[12] = biological target: T10, Mature myostatin (human, UniProt O14793 267-375); test: as above
T10 construct: Disulfide-bonded homodimer; Biotinylated in the ELISA; also called human myostatin mature form; active myostatin
T10 sequence: T8 sequence 2
Procedure: as §1

Kd [1]: 600 nM
B1: M103205H795-MY015/M103202L889-SK1 (antibody, human IgG1, kappa, name in EU numbering)
heavy: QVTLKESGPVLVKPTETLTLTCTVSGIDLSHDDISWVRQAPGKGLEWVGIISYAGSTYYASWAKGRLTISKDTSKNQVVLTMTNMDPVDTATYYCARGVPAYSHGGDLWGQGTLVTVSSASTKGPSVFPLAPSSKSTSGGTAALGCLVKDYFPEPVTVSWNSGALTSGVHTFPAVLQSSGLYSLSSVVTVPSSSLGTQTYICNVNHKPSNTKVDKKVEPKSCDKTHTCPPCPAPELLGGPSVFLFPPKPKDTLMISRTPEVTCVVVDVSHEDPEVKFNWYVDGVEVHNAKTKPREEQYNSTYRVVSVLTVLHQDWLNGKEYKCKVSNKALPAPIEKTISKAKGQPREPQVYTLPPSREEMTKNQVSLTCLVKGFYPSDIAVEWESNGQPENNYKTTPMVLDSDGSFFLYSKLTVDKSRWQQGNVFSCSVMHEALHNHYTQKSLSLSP
light: DIVMTQSPATLSLSPGERATLSCTSSQSVYHANWLSWFQQKPGQPPKLLIYWASTLAYGVPSRFSGSGSGTDFTLTISSLQPEDAATYYCAGGYGGGRYAFGQGTKVEIKRTVAAPSVFIFPPSDEQLKSGTASVVCLLNNFYPREAKVQWKVDNALQSGNSQESVTEQDSKDSTYSLSSTLTLSKADYEKHKVYACEVTHQGLSSPVTKSFNRGEC
notes: Substitution introduced into M103205H795-SG1; EU numbering

KD fold (SG1 = 1) [2]: 0.02 fold
B2: MS103240H795-TT91/M103202L1045-SK1 (antibody)
heavy: QVQLVESGGGLVQPGGSLRLSCAVSGIDLSHDDISWVRQAPGKGLEWVSIISYAGSTYYASWAKGRLTISKDTSKNQVVLTMTNMDPVDTATYYCARGVPAYSHGGDLWGQGTLVTVSSASTKGPSVFPLAPSSKSTSGGTAALGCLVKDYFPEPVTVSWNSGALTSGVHTFPAVLQSSGLYSLSSVVTVPSSSLGTQTYICNVNHKPSNTKVDKKVEPKSCDKTHTCPPCPAPEYLGGDSVFLFPPKPKDVLMISRTPEVTCVVIDVSHEDPEVKFNWYVDGVEVHNAKTKPREEQYNSTYRVVSVLPVLHRDWLNGKEYKCKVSNKALPKPIEKTISKAKGQRREPQVYTLPPSREEMTKNQVSLTCLVKGFYPSDIAVEWESNGQPENNYKTTPPVLDSDGSFFLYSKLTVDKSRWQQGNVFSCSVLHEALHAHTTRKELSLSP
light: B1 light with S25T, A32E

KD fold (SG1 = 1) [2]: 0.006 fold
B3: MS103240H795-TT68/M103202L1045-SK1 (antibody)
heavy: B2 heavy with Y236L, I266V, R345P, D415K, L430M, T438Y
light: B1 light with S25T, A32E
notes: copies: 2 + 2

Kd [3]: 550 nM
B4: M103205H795-MY038/M103202L889-SK1 (antibody, human IgG1, kappa, name in EU numbering)
heavy: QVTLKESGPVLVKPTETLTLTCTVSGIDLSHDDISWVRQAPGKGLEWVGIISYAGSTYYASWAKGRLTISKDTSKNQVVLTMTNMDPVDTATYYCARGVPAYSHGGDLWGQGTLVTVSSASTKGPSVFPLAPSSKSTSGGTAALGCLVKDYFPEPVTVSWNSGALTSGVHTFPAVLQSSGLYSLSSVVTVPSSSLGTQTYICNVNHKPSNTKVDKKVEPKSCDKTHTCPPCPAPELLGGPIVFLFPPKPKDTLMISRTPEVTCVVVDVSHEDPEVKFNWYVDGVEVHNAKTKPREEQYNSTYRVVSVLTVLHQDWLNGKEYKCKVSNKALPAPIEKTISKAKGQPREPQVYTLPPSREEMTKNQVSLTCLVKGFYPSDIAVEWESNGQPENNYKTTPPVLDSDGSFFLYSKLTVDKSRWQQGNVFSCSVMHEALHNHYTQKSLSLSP
light: B1 light
notes: as for B1

Kd [3]: 1200 nM | Kd [4]: 6100 nM | KD fold (SG1 = 1) [5]: 0.5 fold
B5: M103205H795-MY043/M103202L889-SK1 (antibody, human IgG1, kappa, name in EU numbering)
heavy: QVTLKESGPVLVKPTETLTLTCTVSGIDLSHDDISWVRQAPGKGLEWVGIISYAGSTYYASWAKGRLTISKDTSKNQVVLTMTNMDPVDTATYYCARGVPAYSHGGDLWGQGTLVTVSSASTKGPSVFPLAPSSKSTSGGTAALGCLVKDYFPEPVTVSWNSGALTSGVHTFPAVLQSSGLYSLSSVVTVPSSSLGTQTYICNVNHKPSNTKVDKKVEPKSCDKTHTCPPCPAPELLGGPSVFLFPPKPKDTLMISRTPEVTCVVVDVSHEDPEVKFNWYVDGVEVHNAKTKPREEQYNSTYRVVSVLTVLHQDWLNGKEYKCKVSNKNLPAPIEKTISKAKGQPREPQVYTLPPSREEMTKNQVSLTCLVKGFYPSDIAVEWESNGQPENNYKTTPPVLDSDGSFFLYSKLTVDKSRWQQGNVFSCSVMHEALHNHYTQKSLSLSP
light: B1 light
notes: as for B1

Kd [1]: 680 nM | KD fold (SG1 = 1) [6]: 4.5 fold | KD fold (SG1 = 1) [7]: 3.9 fold | KD fold (SG1 = 1) [5]: 3.1 fold | KD fold (SG1 = 1) [8]: 1.6 fold
B6: M103205H795-MY017/M103202L889-SK1 (antibody, human IgG1, kappa, name in EU numbering)
heavy: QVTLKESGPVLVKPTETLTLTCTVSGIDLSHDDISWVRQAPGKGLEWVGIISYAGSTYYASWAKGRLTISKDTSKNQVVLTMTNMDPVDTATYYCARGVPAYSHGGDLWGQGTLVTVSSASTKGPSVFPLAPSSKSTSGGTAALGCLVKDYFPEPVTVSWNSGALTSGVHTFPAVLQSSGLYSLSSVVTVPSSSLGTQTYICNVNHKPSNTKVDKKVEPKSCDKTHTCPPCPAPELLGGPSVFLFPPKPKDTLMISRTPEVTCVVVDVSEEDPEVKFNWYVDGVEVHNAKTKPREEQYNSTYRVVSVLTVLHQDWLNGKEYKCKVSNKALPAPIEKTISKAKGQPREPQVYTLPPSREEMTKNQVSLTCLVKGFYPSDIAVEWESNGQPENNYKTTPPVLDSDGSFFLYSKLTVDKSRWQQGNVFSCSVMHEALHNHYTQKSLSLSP
light: B1 light
notes: as for B1

EC50 (read off the curve) [9]: ~0.02 µg/mL | EC50 (read off the curve) [10]: ~0.008 µg/mL | EC50 (read off the curve) [11]: ~0.01 µg/mL | binding result [12]: no binding (tested: 10 ng/µL (log 1))
B7: MS_MST1032Ha-G1m/MST1032La-k0MC (antibody, human IgG1, kappa, V domains shown)
VH: QSLEESGGRLVTPGGSLTVTCRVSGIDLSSYDISWVRQAPGKGLEWIGIISYAGSTYYASWAKGRFTISKTSTTVDLKMTSLTTEDTATYFCARGVPAYSTGGDLWGPGTLVTVSS
VL: AQVLTQTASSVSAAVGGTVTINCQSSQSVYDNNWLSWFQQKPGQPPKLLIYWASTLASGVPSRFKGSGSGTQFTLTISDLECDDAATYYCAGGYGGGLYAFGGGTKVEIKR
notes: Rabbit/human chimeric antibody; also called MST1032-G1m
